Values quoted from earlier work, collected in PMC3121883.
Like-named read-outs stand apart in the source and are kept apart here.

Experiments:
[1] = target: Connexin43 C-terminal peptide (UniProt P17302); assay: fluorescence
[2] = target: Connexin43 C-terminal peptide (UniProt P17302); assay: fluorescence; remark: listed apart in the source

Chain of UniProt P17302 (P17302 whole entry, looked up, tested part not stated): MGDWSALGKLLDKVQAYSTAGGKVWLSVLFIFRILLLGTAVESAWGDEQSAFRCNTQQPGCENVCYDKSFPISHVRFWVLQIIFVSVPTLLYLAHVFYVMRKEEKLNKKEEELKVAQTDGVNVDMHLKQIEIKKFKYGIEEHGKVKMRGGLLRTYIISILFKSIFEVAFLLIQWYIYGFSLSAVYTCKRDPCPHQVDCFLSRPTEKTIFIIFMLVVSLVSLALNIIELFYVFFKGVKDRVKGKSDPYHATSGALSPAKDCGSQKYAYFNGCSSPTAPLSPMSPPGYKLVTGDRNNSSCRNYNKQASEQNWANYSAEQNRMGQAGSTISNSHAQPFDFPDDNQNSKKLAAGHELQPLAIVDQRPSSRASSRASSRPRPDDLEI

## ZO-1 PDZ2 (from UniProt Q07157)
[1]
  Kd: 7.2 µM
[2]
  Kd: > 100 µM
